The results in this text go back to paper PMC8421139.

Holding throughout (assay): EMSA
(A gel shift assay detects complexes by their altered migration in electrophoresis.)

In one data set the target is TDRD3 E691K (UniProt A0ACI8Q7A3 1-93+Q9H7E2:1-651, E598K;internal_change).
Another data set concerns the target T1, GST-TDRD3 UBA (UniProt Q9H7E2 193-233).
T1 chain: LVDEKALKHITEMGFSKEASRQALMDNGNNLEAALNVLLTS

The next data set addresses GST-TDRD3 Tudor (UniProt Q9H7E2 555-615).

B1: ssDNA probe (R-loop forward oligo) (ssDNA)
DNA: CCTCGCAAACTACTTAGATGTCATCCGCGAGC
For B1, the binding result with TDRD3 E691K is on record as “binds”; in the data set with GST-TDRD3 UBA, “no binding”; with GST-TDRD3 Tudor, “no binding”.
